Data taken from the DeepSol protein solubility set.

Assay: soluble on expression in E. coli; label from the status in PepcDB or PDB records

| Sequence | soluble on expression in E. coli |
| --- | --- |
| MLRPVETPTREIKKLDGLWAFSLDRENCGIDQRWWESALQESRAIAVPGSFNDQFADADIRNYAGNVWYQREVFIPKGWAGQRIVLRFDAVTHYGKVWVNNQEVMEHQGGYTPFEADVTPYVIAGKSVRITVCVNNELNWQTIPPGMVITDENGKKKQSYFHDFFNYAGIHRSVMLYTTPNTWVDDITVVTHVAQDCNHASVDWQVVANGDVSVELRDADQQVVATGQGTSGTLQVVNPHLWQPGEGYLYELCVTAKSQTECDIYPLRVGIRSVAVKGEQFLINHKPFYFTGFGRHEDADLRGKGFDNVLMVHDHALMDWIGANSYRTSHYPYAEEMLDWADEHGIVVIDETAAVGFNLSLGIGFEAGNKPKELYSEEAVNGETQQAHLQAIKELIARDKNHPSVVMWSIANEPDTRPQGAREYFAPLAEATRKLDPTRPITCVNVMFCDAHTDTISDLFDVLCLNRYYGWYVQSGDLETAEKVLEKELLAWQEKLHQPIIITEYGVDTLAGLHSMYTDMWSEEYQCAWLDMYHRVFDRVSAVVGEQVWNFADFATSQGILRVGGNKKGIFTRDRKPKSAAFLLQKRWTGMNFGEKPQQGGKQ | soluble |
| MKKKDRYTISELAREFEISTRTIRYYEEIGLLNPERTPGNQRIFSRKDRAKLKLILRGRRLGFSLEEIREMIEMYDVAGEPEQIRLTLKYGEKKLKEIEEKIRELELLKEDLLNLREMLVKRLEELEKGS | not soluble |
| GPSASLLVQNGTLNVGDAIVVGNTYGRIRAMVNDLGQRIKTAGPSTPVEITGINDVPQAGDRFV | soluble |
| MIMASSAAASISMITLRNLSRNHQSHQSTFLGFSRSFHNQRISSNSPGLSTRARSTTSSTGGFFRTICSSSSNDYSRPTKIQELNVYEFNEGDRNSPAVLKLGKKPDQLCLGDLVPFTNKLYTGDLTKRIGITAGLCVLIQHVPEKKGDRFEASYSFYFGDYGHISVQGPYLTYEDTFLAITGGSGVFEGAYGQVKLRQLVYPTKLFYTFYLKGVAADLPVELTGKHVEPSKEVKPAAEAQATQPGATIANFTN | soluble |
| MQRKTFADAECPIARSLERVGEWWSILIMRDALQGLRRFDEFSRSLDIAPNMLTRRLNALVEAGLLERQPYSQRPLRYQYVPTAKGEDFRVVLMAFVAWGNRHYAEEGQSVQLVERTSGRPVRSFMAALADGRTVPLEQCTVQAGPAASEEMRQRLAAMPERSELPAR | not soluble |
| MGSDKIHHHHHHMENHTDIETLLTKYFEGNTTPPENEQIEAWLNADEEHLRIAKQLNTLYLAVDTQHITKKIDTEKALDKVKSRTKVRNLSWWGWTQRIAAILSVPLLIGVLALYPDRQQPVVTAQMVEIKTNAGMTTSVLLPDSTVVHLNSESSLRYPTFFAGDVRQVELNGEAYFDVTQHPRKRFIVSTPHHSQVEVYGTSFNVEAYGNETPISTTLIEGSVGFIYKNSKGKFQKSMLSPRQKLVYSPQTGDIKCYATSGESEISWKDGKLIFNDTPLDEVLHMLGKRFNVEFVLSNKGLKGCSFTGTFTHQRLERIMEYFRISSHIRWRYIDSADIKTEKLKIEVY | not soluble |
| MGSDKIHHHHHHMVETYTLNPNLTKTAAVAEWLQQRIDWHIYLPNQRVPSVRKLAKLLNISSFTVVQAYEQLVATGVLIAKPSSGYYVNTQSKLVQPNDDKRKVFKHPVIDTRWLVQQVFSDIPHNRSPGVGTLPRDWVRNDKMEWAIRQVTQQADSFIYDYGNVQGYLPLRQQLVQHLHTLGMQTHADHVITTAGVSQAVTMVARLLTQAGDTVVVDGPGWYWLSSCLQQQGLNVVSVERDHQGPNIEQMQKLFAAHRPKLYLTNSVLHNPTSYNLHPARAHQVLNLIHEYDAYIFEDDLYAAFVPGGQVLRYASLDQFERVFYATGFSKSMASGWRVGMLVCPDNYIDDVLRIKTLSNSNTPEFGERVCHHLWTHGEYRRQIKKVQQHLYRAHERMRKALPKIRLIYPEHTQAGLFVWVDMGQDTSQLALDAYKEGWLVAPGQLFYPDVSASTHLRLNVSTTSDEFLRWLGDYLDKSCQY | not soluble |
| MTTGGEDSRRTLSPGTMIVIVGPSGAGKDTLMDYAAAQLSGRPGFHFTRRVITRSCDAGGENHDAVSMHEFNQLEDAGAFAVSWQAHGLKYGIPAAVYRHLEAGDVVIANGSRSALPHFGTAFSRLKVVNIVARPDVLARRLEQRGRESRDDILRRLERSSLAVAGDFDVTTVDNSGAIEDAGKTIMQVLQQSAGSSQP | not soluble |
| MDLRSALEKTNIIKSYKLHFLIRYTTSRFEVKEPFLAYLHMARQKDKLLPKCITPPNKKADPFTNDVSSYFTHTHTHTPCSPSLVYTYVNTTEKSPSKSPKHKNILPFNFTK | not soluble |
| LFGVTSELSKDGRERIYRVEGQLFYASVEDFMAAFDFREALDRVVIDVSRAHIWDISSVQALDMAVLKFRREGAEVRIVGMNEASETMVDRLAIHDKPGAMDRLVAH | not soluble |
| MSLEIERYIVPKETWPEIIIPVEVQEYIGERKELNLAEELLDRNIREGRGRKVAVYFEDRRVTYRDLYRLSNKIANFLVGIGVQPYDRVGFRTRNMPEAIAVNFGIMKAGAIPVPLNPMWAGKEVSFVSNNAEIKALFVSGDERVFPAVNEVKDEIKTAKAMVVMDGEKEGFIPFSEVTAESAKFDPILLKIGTPALILYTSGTTGLPKGCVHFVENVISSVYLVGKHVWKLTPDDVVGGPAPVSFAMGYGNGCLIPYFHGAAASIWPRFSVENFFKYVEEHGITVFSSLPTSYRMILADPKLEEYMNKYDISSLRLFTGGGEALGAETAKRWKEVFGMDIYESLGATEMLHICIANACAPKPVAGSIGFPVPGYIAKIVDPETGKECGADEVGSLYIKGPTGIRYWNHPSRDLSEKQAKSVKNGWNVLGDFVRKDENGYIYFVSRDDDLIKSSGYRIGPDEIEQPLNTHPAVAECAVIGVPDPEGIRGQVVKAIIRLKEGYTPDEKLKEDILAFLEKHIAKYKLPRIIEFTDKPLPRTPTGKLLRRLLKQSEGHHHHHH | not soluble |
| MLNLCDEDFDAMELVEGALALNKAINPETQLEWAHIELARLLKEAELALVHERDEKARFEAFLRLFYQEWGFSGDREAYFDSRNAFIDQVLQRRKGIPVSLGSLLLYLGHKLGFPLNGISFPTQFLLSLNWSGERPIYLNPFNGEIVSQHTLQAWLVGHKGPLAKLKPQHLQSVDNPTIIGRWLALLKSALLREERYTLALRCTDLALTFVPDDPYEIRDRGFIYQQLQCHQIAISDYQYFIEHCPNDPAAELLKTQVNALSHDSQVTLHLEHHHHHH | soluble |
| MGGKMEKITCVGHTALDYIFNVEKFPEPNTSIQIPSARKYYGGAAANTAVGIKKLGVNSELLSCVGYDFKNSGYERYLKNLDINISKLYYSEEEETPKAWIFTDKDNNQITFFLWGAAKHYKELNPPNFNTEIVHIATGDPEFNLKCAKKAYGNNLVSFDPGQDLPQYSKEMLLEIIEHTNFLFMNKHEFERASNLLNFEIDDYLERVDALIVTKGSKGSVIYTKDKKIEIPCIKAGKVIDPTGAGDSYRAGFLSAYVKGYDLEKCGLIGAATASFVVEAKGCQTNLPTWDKVVERLEKHRI | soluble |
| MARKAESSNRLDDAARAGWLYYVAGRTQDEIASVMGISRQSAQRLVSLAMAERLIKVRLDHPIAACLEMAARLKEKYDLKHVDVVPSDPGSDSTTVGIAEAGAAEIERWLKSAEPVVLAIGTGRTLKATIDQLPSMECPQHRIVSLTGNIRLDGSAAYYNVIFSMADTIKARHFPMPLPVLVSSPEEREVLHKQSLVQIALELGAEADAAFVGVGELGPDAPLCEDGFLARDEMARLMAAGAAGEICGWMFDHEGVLLPDSINERVASVPLPPRDRASVIGIAKGRRKHEALRAALKGRIINGLVTDEATADYLLRV | not soluble |
| MAVLYKSFQSVLEDKNHKKMFHPRVIYTANISTSQIAKEIAAYSSLSPGDVKNTLDNLVTVMGQHLQASESVSLDGFGTFRMVMKSNGKGVETSEEVSAAQASLTVRFLPNFTKNPDRTTATRSLVTGAKCVRFDRTDTPASGSGNTNKPGGGDGGEGGGEEAPDPTV | not soluble |
| MGSDKIHHHHHHMQQFPRLARVGLGFRRELIPALKSGVPATIDFFEIAPENWIDLGGGAARDLLFFTERYPFVCHGLSLSIGGPAPLDEILLQKIRQFLDQHRVLLYTEHLSYCSDDGHLYDLLPIPFTEEAVKYVAERVRRTQDILERRIALENASFYVASPISDMSELDFIRAVLLEADCDLHLDVNNVYVNSINHDYDPVDFIRALPSDRIVYMHMAGHHKEAENLIIDTHGADVIDPVWSLLDQTYGMHGVAPTLLERDFNIPPLEQLMREVLHIALIQAQHADSGDASAT | not soluble |
| MTRPFNRVHLIVMDSVGIGEAPDAADFKDEGSHTLRHTLEGFDQTLPNLEKLGLGNIDKLPVVNAVEQPEAYYTKLSEASVGKDTMTGHWEIMGLNIMQPFKVYPNGFPEELIQQIEEMTGRKVVANKPASGTQIIDEWGEHQMKTGDLIVYTSADPVLQIAAHEDIIPLEELYDICEKVRELTKDPKYLIGRIIARPYVGEPGNFTRTSNRHDYALKPFGKTVLDHLKDGGYDVIAIGKINDIYDGEGVTEAVRTKSNMDGMDQLMKIVKKDFTGISFLNLVDFDALYGHRRDKPGYAQAIKDFDDRLPELFSNLKEDDLVIITADHGNDPTAPGTDHTREYIPVIMYSPKFKGGHALESDTTFSSIGATIADNFNVTLPEFGKSYLKELK | not soluble |
| MIERYSRPEMSAIWTDENRFQAWLEVEILACEAWAELGVIPKEDVKVMRENASFDINRILEIEKDTRHDVVAFTRAVSESLGEERKWVHYGLTSTDVVDTALSYLLKQANDILLKDLERFVDIIKEKAKEHKYTVMMGRTHGVHAEPTTFGLKLALWHEEMKRNLERFKQAKAGIEVGKISGAVGTYANIDPFVEQYVCEKLGLKAAPISTQTLQRDRHADYMATLALIATSIEKFAVEIRGLQKSETREVEEFFAKGQKGSSAMPHKRNPIGSENMTGMARVIRGYMMTAYENVPLWHERDISHSSAERIILPDATIALNYMLNRFSNIVKNLTVFPENMKRNMDRTLGLIYSQRVLLALIDTGLTREEAYDTVQPKAMEAWEKQVPFRELVEAEEKITSRLSPEKIADCFDYNYHLKNVDLIFERLGLA | soluble |
| MGSDKIHHHHHHMQTTTALRLYGKRDLRLETFTLPAMQDDEILARVVTDSLCLSSWKEANQGADHKKVPDDVATRPIIIGHEFCGEILAVGKKWQHKFQPGQRYVIQANLQLPDRPDCPGYSFPWIGGEATHVVIPNEVMAQDCLLTWEGDTWFEGSLVEPLSCVIGAFNANYHLQEGSYNHVMGIRPQGHTLILGGTGPMGLLAIDYALHGPINPSLLVVTDTNKPKLSYARRHYPSEPQTLIHYLDGHEASRDTLLALSGGHGFDDIFVFVPNEQLITLASSLLAPDGCLNFFAGPQDKQFSAPINFYDVHYAFTHYVGTSGGNTDDMRAAVALMQAKKVQTAKVVTHILGLNAAGETTLDLPAVGGGKKLVYTGKAFPLTPLGEIADPELAAIVARHHGIWSQDAEAYLLAHAEDITHD | not soluble |
| MSLASLRVLALACLPLFAVLHADAKTLLGKVKRATGMGVGEGPSVAKKPKYTATVPGFTPPSGDQRMNEFMAVDTSGEFMRHLYIEEGRTVCASATSRNRRPTSESPHSDDVVVVEGMLRGRPETRVHAMFDGFQGRHSAMWLAQNVMNYLNDLRDVNEEEITRQFERMDGDLRAANLPGGSSALIIFVRYEKKPTEARVVGRQIVPEGAKEFTSVAEALGGPLMPVVAMNFRRDPRAAKGIYTIHVASLGNSRCVLKSGRTAIHLSTPHTASSHKERHRVQAAGGVFTTVNGELLLGGVVPMTRAFGSFDFKKGGQGKLQQDLVSAVPDVTTFFAYPGDDIVAGTAGAFAHFRSHAAIAAAIALYPVSPETVLDAAEGHHHHHH | soluble |
